Data taken from doi:10.1101/2020.07.24.219675.

Biological target: sapC-PUMA (protein chimera of saposin C and the BH3 domain of PUMA)
Assay: NMR titration

**Q.** Which Kd does the source give for “Bcl-xL-ΔTM (Bcl-xL without the transmembrane domain) (domain or fragment)” here?
**A.** < 310 nM

**Q.** And the koff?
**A.** < 310 s⁻¹

**Q.** What about the stoichiometry N of the same substance?
**A.** 1
